In article PMC7861563, “FOXP1 Interacts with MyoD to Repress its Transcription and Myoblast Conversion” (Journal of cellular signaling, 2021):

T1: Myoblast Determination protein 1 (MYOD1/MyoD), endogenous in C2C12 (mouse (endogenous in C2C12), UniProt P10085 1-318)
T1 sequence (looked up): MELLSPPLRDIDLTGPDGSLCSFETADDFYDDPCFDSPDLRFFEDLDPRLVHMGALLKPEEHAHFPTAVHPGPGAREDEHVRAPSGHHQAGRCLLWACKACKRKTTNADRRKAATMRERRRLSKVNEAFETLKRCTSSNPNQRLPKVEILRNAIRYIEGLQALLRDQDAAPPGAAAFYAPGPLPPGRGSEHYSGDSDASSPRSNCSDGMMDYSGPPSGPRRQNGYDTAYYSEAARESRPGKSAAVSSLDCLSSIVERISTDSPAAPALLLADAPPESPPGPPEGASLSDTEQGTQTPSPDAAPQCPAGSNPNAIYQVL


Tests used:
[1] = biological target: MyoD, bacterially expressed (UniProt P10085)
[2] = biological target: T1, Myoblast Determination protein 1 …; test: cell-based or functional assay

Molecule | EMSA titration: amount of GST-Fkh for full inhibition of DNA binding of MyoD homodimers (200ng/reaction) [1] [ng] | EMSA titration: amount of GST-Fkh for full inhibition of DNA binding of MyoD-E47N (MyoD 200ng, E47N 50ng/reaction) [1] [ng] | MCK enhancer E box firefly luciferase reporter in 10T1/2 cells after 5-azacytidine, FOXP1 expression plasmid in varying amounts (highest input ~3-fold molar excess over MyoD) [2] [fold] | luciferase reporter driven by 2 E-box consensus MyoD binding sites (2R-luc) in differentiating C2C12, normalized to β-galactosidase [2] [fold]
GST-FOXP Forkhead domain (GST-Fkh) (domain or fragment) | 100 | 400 | – | –
Forkhead Box P1 (FOXP1), endogenous in C2C12 (natural protein, mouse (endogenous in C2C12), UniProt P58462 1-705, looked up) MMQESGSETKSNGSAIQNGSSGGNHLLECGALRDTRSNGEAPAVDLGAADLAHVQQQQQQALQVARQLLLQQQQQQQQQQQQQQQQQQQQQQQQQQQQQQQQQQQQQVSGLKSPKRNDKQPALQVPVSVAMMTPQVITPQQMQQILQQQVLSPQQLQVLLQQQQALMLQQQLQEFYKKQQEQLQLQLLQQQHAGKQPKEQQVATQQLAFQQQLLQMQQLQQQHLLSLQRQGLLTIQPGQPALPLQPLAQGMIPTELQQLWKEVTSAHTAEETTSSNHSSLDLTSTCVSSSAPSKSSLIMNPHASTNGQLSVHTPKRESLSHEEHPHSHPLYGHGVCKWPGCEAVCDDFPAFLKHLNSEHALDDRSTAQCRVQMQVVQQLELQLAKDKERLQAMMTHLHVKSTEPKAAPQPLNLVSSVTLSKSASEASPQSLPHTPTTPTAPLTPVTQGPSVITTTSMHTVGPIRRRYSDKYNVPISSADIAQNQEFYKNAEVRPPFTYASLIRQAILESPEKQLTLNEIYNWFTRMFAYFRRNAATWKNAVRHNLSLHKCFVRVENVKGAVWTVDEVEFQKRRPQKISGNPSLIKNMQSSHAYCTPLNAALQASMAENSIPLYTTASMGNPTLGSLASAIREELNGAMEHTNSNESDSSPGRSPMQAVHPIHVKEEPLDPEEAEGPLSLVTTANHSPDFDHDRDYEDEPVNEDME | – | – | ~20 | ~12
